Here are results for 9 molecules from PMC8673666 (PLoS Pathogens, 2021).

Series [1] has as its target mouse integrin αvβ8 on B16-mβ8 cells (mouse (endogenous in B16) | mouse) (UniProt P43406). Description: flow cytometry on cells. In general terms: In flow cytometry, cells or beads pass a laser one at a time.
In series [2] the target is human integrin αvβ8 on M000216 melanoma cells (human (endogenous in M000216)) (UniProt P06756). Description: flow cytometry on cells.
Series [3] addresses biotinylated fiber knob of mouse adenovirus 3 (FKb-M3) (mouse adenovirus 3 (MAdV-3)). Description: SPR; […], single cycle; Biacore T200, 20°C; […] (CaCl2, MgCl2, […]; 1:1 kinetic model. (In general: SPR reads the build-up and loss of mass on a sensor chip optically.)
Series [4] addresses mouse integrin αvβ6 on CMT-93 cells (mouse (endogenous in CMT-93)) (UniProt P43406). Description: flow cytometry on cells.
Series [5] addresses mouse integrin αvβ6 on B16-mβ6 cells (mouse (endogenous in B16) | mouse) (UniProt P43406). Description: flow cytometry on cells.
The target of series [6] is recombinant soluble fiber knob of mouse adenovirus 3 (FK-M3) (mouse adenovirus 3 (MAdV-3)). Description: SEC-MALS. (In general: SEC sorts molecules by how far they enter the pores of the column.)
The series “SEC-MALS” deals with the molecule itself. Description: SEC-MALS.
The target of series [7] is T1, soluble mouse integrin αvβ6 (sITG mαvβ6) (mouse, UniProt P43406;Q9Z0T9).
T1 construct: also called mouse sITG αvβ6; source: bought: R&D Systems, expressed in and secreted from CHO cells
T1 sequence (P43406 31-988, chain 1 of 2): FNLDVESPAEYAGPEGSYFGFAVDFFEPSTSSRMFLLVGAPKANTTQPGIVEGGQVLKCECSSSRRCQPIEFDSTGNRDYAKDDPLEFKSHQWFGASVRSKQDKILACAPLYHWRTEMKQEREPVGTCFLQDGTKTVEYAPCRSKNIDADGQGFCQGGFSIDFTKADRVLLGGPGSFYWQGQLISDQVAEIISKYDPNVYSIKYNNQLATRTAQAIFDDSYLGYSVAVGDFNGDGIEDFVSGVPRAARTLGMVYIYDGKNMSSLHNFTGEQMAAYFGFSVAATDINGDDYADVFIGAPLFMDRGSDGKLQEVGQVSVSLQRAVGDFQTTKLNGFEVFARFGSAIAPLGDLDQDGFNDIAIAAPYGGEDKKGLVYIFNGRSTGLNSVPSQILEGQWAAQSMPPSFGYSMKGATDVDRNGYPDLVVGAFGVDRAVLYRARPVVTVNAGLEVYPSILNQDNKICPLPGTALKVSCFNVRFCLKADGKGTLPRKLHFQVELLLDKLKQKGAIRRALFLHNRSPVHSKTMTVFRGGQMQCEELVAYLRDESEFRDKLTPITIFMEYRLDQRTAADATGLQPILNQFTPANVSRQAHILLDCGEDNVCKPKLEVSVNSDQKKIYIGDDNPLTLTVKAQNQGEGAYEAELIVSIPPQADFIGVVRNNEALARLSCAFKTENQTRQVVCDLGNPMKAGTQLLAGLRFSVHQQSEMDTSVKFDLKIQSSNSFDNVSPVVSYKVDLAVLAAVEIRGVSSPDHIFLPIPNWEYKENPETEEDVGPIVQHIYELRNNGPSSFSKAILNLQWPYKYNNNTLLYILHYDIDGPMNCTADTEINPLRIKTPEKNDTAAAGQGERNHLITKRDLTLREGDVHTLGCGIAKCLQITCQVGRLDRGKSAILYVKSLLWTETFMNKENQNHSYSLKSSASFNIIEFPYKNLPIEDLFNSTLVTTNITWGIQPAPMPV
T1 sequence (Q9Z0T9 22-708, chain 2 of 2): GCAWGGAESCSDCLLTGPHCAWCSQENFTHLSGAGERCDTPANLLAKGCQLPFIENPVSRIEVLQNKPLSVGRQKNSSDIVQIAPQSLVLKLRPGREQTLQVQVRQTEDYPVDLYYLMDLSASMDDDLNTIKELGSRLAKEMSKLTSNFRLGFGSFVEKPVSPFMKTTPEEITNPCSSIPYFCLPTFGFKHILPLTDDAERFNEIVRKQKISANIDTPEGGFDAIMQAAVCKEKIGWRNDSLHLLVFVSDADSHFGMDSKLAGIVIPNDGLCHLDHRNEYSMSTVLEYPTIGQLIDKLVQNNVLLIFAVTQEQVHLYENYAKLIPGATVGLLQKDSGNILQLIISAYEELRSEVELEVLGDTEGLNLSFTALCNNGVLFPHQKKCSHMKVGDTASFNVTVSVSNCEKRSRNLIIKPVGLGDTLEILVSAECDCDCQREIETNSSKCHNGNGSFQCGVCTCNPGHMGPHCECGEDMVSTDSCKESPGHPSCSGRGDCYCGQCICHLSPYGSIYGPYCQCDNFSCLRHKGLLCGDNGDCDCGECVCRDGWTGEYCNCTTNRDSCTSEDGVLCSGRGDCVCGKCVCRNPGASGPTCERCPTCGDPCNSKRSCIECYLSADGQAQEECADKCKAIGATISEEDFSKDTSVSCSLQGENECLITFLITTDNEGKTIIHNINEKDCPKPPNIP
Description: SPR; […], single cycle; Biacore T200, 20°C; […] (CaCl2, MgCl2, […]; 1:1 kinetic model. Conditions: both partners purified.

In series [8] the target is T2, soluble human integrin αvβ6 (sITG hαvβ6) (human, UniProt P06756;P18564).
T2 construct: also called human sITG αvβ6
T2 sequence (P06756 31-992, chain 1 of 2): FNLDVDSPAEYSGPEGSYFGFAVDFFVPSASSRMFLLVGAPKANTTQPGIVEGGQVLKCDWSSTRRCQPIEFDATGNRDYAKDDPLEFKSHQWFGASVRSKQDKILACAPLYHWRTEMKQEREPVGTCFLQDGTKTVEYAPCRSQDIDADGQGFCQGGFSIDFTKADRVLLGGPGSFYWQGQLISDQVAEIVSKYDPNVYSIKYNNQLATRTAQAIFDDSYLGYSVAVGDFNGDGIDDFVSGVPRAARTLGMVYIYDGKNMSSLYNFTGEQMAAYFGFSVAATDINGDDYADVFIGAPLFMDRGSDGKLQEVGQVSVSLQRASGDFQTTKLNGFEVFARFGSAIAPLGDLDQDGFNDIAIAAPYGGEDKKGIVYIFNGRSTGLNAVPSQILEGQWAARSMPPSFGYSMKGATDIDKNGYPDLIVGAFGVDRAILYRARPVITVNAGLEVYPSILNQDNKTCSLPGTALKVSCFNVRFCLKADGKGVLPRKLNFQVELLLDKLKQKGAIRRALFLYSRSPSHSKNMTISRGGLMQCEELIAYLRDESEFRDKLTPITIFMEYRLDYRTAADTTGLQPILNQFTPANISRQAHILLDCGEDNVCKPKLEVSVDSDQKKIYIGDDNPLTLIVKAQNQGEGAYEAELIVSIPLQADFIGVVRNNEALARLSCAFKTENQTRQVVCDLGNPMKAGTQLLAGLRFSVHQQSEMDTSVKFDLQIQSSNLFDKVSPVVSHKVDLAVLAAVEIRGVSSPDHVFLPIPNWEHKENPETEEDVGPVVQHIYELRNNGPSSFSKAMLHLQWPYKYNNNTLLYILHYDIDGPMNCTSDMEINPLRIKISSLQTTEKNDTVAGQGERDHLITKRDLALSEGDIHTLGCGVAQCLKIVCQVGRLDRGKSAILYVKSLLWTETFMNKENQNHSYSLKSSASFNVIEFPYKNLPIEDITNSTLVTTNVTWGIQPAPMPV
T2 sequence (P18564 22-709, chain 2 of 2): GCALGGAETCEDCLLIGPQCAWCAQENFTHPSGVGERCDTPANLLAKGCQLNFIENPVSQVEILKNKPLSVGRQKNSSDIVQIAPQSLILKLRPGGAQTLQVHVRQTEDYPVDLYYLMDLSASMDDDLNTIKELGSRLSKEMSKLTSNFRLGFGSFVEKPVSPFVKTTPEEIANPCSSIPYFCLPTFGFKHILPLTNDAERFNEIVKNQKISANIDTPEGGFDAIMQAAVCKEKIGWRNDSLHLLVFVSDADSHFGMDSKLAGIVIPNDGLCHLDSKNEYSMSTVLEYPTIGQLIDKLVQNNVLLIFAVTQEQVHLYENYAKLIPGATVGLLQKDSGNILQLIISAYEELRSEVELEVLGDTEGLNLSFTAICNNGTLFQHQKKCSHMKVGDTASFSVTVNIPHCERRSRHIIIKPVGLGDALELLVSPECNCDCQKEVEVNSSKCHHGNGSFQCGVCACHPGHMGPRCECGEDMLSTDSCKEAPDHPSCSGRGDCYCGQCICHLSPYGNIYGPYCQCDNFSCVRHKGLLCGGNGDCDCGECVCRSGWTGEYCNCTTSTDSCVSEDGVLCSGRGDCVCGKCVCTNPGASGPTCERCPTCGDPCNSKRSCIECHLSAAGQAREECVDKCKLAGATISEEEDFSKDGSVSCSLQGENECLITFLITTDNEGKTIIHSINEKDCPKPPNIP
The series is described as above. Conditions: both partners purified.

Series [9] deals with T3, soluble human integrin αvβ8 (sITG hαvβ8) (human, UniProt P06756;P26012).
T3 construct: also called human sITG αvβ8
T3 sequence (P06756 31-992, chain 1 of 2): as the sequence (P06756 31-992, chain 1 of 2) above
T3 sequence (P26012 43-684, chain 2 of 2): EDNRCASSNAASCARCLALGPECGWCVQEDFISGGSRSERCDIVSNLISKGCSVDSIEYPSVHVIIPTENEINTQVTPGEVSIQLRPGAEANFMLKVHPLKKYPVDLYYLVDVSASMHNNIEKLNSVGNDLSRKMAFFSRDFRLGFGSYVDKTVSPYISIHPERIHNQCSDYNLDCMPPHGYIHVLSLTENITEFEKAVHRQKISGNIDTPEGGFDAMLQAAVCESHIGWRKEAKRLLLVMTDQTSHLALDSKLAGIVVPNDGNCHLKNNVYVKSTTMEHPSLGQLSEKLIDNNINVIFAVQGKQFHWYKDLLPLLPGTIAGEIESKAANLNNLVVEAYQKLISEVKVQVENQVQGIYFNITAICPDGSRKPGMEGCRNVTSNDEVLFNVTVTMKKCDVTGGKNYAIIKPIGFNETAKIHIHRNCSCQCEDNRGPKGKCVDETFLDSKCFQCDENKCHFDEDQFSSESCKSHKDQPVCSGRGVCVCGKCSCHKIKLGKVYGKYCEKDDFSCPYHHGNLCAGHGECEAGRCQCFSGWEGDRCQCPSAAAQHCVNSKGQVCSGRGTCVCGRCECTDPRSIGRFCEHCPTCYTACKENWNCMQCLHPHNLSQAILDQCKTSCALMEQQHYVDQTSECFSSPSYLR
The series is described as above. The following applies: both partners purified.

In series [10] the target is T4, mouse integrin αvβ6 on B16-mβ6 cells (mouse (endogenous in B16) | mouse, UniProt P43406;Q9Z0T9).
T4 construct: also called mαvβ6
Description: flow cytometry on cells. The following applies: one partner purified.

With “MAdV-3-IX-2A-GFP virus particles (M3-IX-G), bearing the M3 fiber (complex)”, in series [1], the fold increase of virus binding, Mg2+/Ca2+ buffer came out at 1.3 fold and the fold increase of virus binding, Mn2+ buffer turned out to be 2.7 fold. Moreover, the fold increase of the binding enhancement in the presence of Mn2+ in series [2] stood at 3.4 fold.
“soluble human integrin αvβ6 (sITG hαvβ6) (from UniProt P06756;P18564) (receptor)”: in series [3], the dissociation constant (Kd) – broadly, the constant that tells how readily two partners part at equilibrium – came to 0.059 nM; the koff (in general, the first-order rate constant of dissociation) turned out to be 5.01e-06 s⁻¹; the kon (as a rule, a measure of how fast the partners come together) was found to be 85000 M⁻¹ s⁻¹.
For “soluble human integrin αvβ8 (sITG hαvβ8) (from UniProt P06756;P26012) (receptor)”, in series [3], the Kd came out at 1.32 nM, the off-rate (koff) was 0.000965 s⁻¹ and the on-rate (kon) came out at 729000 M⁻¹ s⁻¹.
With “MAdV-1-IX-2A-GFP virus particles (M1-IX-G), bearing the M1 fiber (from UniProt P19721 1-613) (complex)”, in series [1], the fold increase of virus binding, Mg2+/Ca2+ buffer turned out to be 1.3 fold. For the same molecule, the fold increase of the binding enhancement in the presence of Mn2+ in [2] came out at 1.5 fold.
In series [3], “soluble mouse integrin αvβ6 (sITG mαvβ6) (from UniProt P43406;Q9Z0T9) (receptor)” registered a dissociation constant (Kd) of under 0.01 nM, a dissociation rate constant (koff) of 3.12e-08 s⁻¹ and a kon of 51300 M⁻¹ s⁻¹.
For “recombinant soluble fiber knob of mouse adenovirus 3 (FK-M3) (domain or fragment)”, the equilibrium dissociation constant (Kd) in [4] worked out at 0.069 nM; in series [1], 1.31 nM; in series [2], 1.21 nM; in [5], 0.068 nM. Moreover, in series [6], the stoichiometry N (usually the number of molecules, sites or subunits per partner or assembly) came to 3.

B1: biotinylated fiber knob of mouse adenovirus 1 (FKb-M1) (domain or fragment)
chain: GLPIGNNGTFHTKQDCKIFLSLTRLGPMVHGTFMLQAPQYELTTNGMREITFSFNSTGGLEQPAPVTYWGALDPPPTAKAAEIENQKRVKKRAAPDPPVEPPPKRRGDLAVLFAKVAEQAMELAKEQAVQAQPPEHVNTDWADHMNLLRFMPNTLVYPTAATIAANLQFHDTRLSLRRATLKIRLNGSPDSAYQLGFMLELVGTQSASIVTDTISFWYYAEDY
modifications: biotin (biotinylated by co-expressed protein biotin ligase BirA)
Regarding B1, the “stoichiometry N” value in the series “SEC-MALS” is 3. In addition, in series [7], the affinity, expressed as Kd, was 0.25 nM; the koff came out at 1.66e-05 s⁻¹; the kon was found to be 66400 M⁻¹ s⁻¹. In series [8], this molecule registered a Kd of 1.58 nM, a koff of 0.000127 s⁻¹ and an association rate constant (kon) of 80200 M⁻¹ s⁻¹. In [9], binding was put at a Kd of 14.5 nM, the koff was 0.00673 s⁻¹ and the kon is 465000 M⁻¹ s⁻¹.

B2: recombinant soluble fiber knob of mouse adenovirus 1 (FK-M1) (domain or fragment)
chain: B1 chain
notes: source: pET28a expression, purified (Ni-NTA); not shown: His6, N-terminal, kept
Molecule B2 displayed a Kd in [10] of 1.27 ± 0.66 nM.

B3: biotinylated fiber knob of human adenovirus C5 (FKb-H5) (domain or fragment)
chain: TPAPSPNCRLNAEKDAKLTLVLTKCGSQILATVSVLAVKGSLAPISGTVQSAHLIIRFDENGVLLNNSFLDPEYWNFRNGDLTEGTAYTNAVGFMPNLSAYPKSHGKTAKSNIVSQVYLNGDKTKPVTLTITLNGTQETGDTTPSAYSMSFSWDWSGHNYINEIFATSSYTFSYIAQE
modifications: biotin (biotinylated by co-expressed protein biotin ligase BirA)
Regarding B3, in the series “SEC-MALS”, the “stoichiometry N” value was 3.
